Reference: doi:10.1101/798371 (bioRxiv, 2019)
“And” between values parts separate entries of the source, which are not always exact repeats. Equal entries are not always repeated. Where two headings read alike, the source gives them in different places. Blank lines part the entries; values can stand above or below the binder they belong to.

B1: Tom40 (natural protein, S. cerevisiae, UniProt P23644 1-387, looked up)
chain: MSAPTPLAEASQIPTIPALSPLTAKQSKGNFFSSNPISSFVVDTYKQLHSHRQSLELVNPGTVENLNKEVSRDVFLSQYFFTGLRADLNKAFSMNPAFQTSHTFSIGSQALPKYAFSALFANDNLFAQGNIDNDLSVSGRLNYGWDKKNISKVNLQISDGQPTMCQLEQDYQASDFSVNVKTLNPSFSEKGEFTGVAVASFLQSVTPQLALGLETLYSRTDGSAPGDAGVSYLTRYVSKKQDWIFSGQLQANGALIASLWRKVAQNVEAGIETTLQAGMVPITDPLMGTPIGIQPTVEGSTTIGAKYEYRQSVYRGTLDSNGKVACFLERKVLPTLSVLFCGEIDHFKNDTKIGCGLQFETAGNQELLMLQQGLDADGNPLQALPQL
B4: Tom22 (natural protein, S. cerevisiae, UniProt P49334 1-152, looked up)
chain: MVELTEIKDDVVQLDEPQFSRNQAIVEEKASATNNDVVDDEDDSDSDFEDEFDENETLLDRIVALKDIVPPGKRQTISNFFGFTSSFVRNAFTKSGNLAWTLTTTALLLGVPLSLSILAEQQLIEMEKTFDLQSDANNILAQGEKDAAATAN

What was measured:
cryo-EM structure [1] = biological target: the molecule itself; test: cryo-EM structure
cryo-EM structure [2] = biological target: the molecule itself; test: cryo-EM structure; remark: listed apart in the source
SEC = biological target: the molecule itself; test: SEC
Tom40 [3] = biological target: B1; test: cryo-EM structure
Tom22 = biological target: B4; test: cryo-EM structure
Tom40 [4] = biological target: B1; test: cryo-EM structure; remark: listed apart in the source

Binder: B1
binding result (cryo-EM structure [1]): binds

B2: core TOM complex (monomeric unit: Tom40, Tom22, Tom5, Tom6, Tom7) (complex, S. cerevisiae)
chain 1: MSAPTPLAEASQIPTIPALSPLTAKQSKGNFFSSNPISSFVVDTYKQLHSHRQSLELVNPGTVENLNKEVSRDVFLSQYFFTGLRADLNKAFSMNPAFQTSHTFSIGSQALPKYAFSALFANDNLFAQGNIDNDLSVSGRLNYGWDKKNISKVNLQISDGQPTMCQLEQDYQASDFSVNVKTLNPSFSEKGEFTGVAVASFLQSVTPQLALGLETLYSRTDGSAPGDAGVSYLTRYVSKKQDWIFSGQLQANGALIASLWRKVAQNVEAGIETTLQAGMVPITDPLMGTPIGIQPTVEGSTTIGAKYEYRQSVYRGTLDSNGKVACFLERKVLPTLSVLFCGEIDHFKNDTKIGCGLQFETAGNQELLMLQQGLDADGNPLQALPQL
chain 2: MVELTEIKDDVVQLDEPQFSRNQAIVEEKASATNNDVVDDEDDSDSDFEDEFDENETLLDRIVALKDIVPPGKRQTISNFFGFTSSFVRNAFTKSGNLAWTLTTTALLLGVPLSLSILAEQQLIEMEKTFDLQSDANNILAQGEKDAAATAN
chain 3: MFGLPQQEVSEEEKRAHQEQTEKTLKQAAYVAAFLWVSPMIWHLVKKQWK
chain 4: MDGMFAMPGAAAGAASPQQPKSRFQAFKESPLYTIALNGAFFVAGVAFIQSPLMDMLAPQL
chain 5: MSFLPSFILSDESKERISKILTLTHNVAHYGWIPFVLYLGWAHTSNRPNFLNLLSPLPSV
stoichiometry N (cryo-EM structure [2]): 4 and 3
stoichiometry N (SEC): 2

binding result (Tom40 [3]): binds
binding result (Tom22): binds
Binder: MFGLPQQEVSEEEKRAHQEQTEKTLKQAAYVAAFLWVSPMIWHLVKKQWK (natural protein, S. cerevisiae, UniProt P80967 1-50, looked up) [Tom5]

binding result (Tom40 [3]): binds
B3: Tom6 (natural protein, S. cerevisiae, UniProt P33448 1-61, looked up)
chain: MDGMFAMPGAAAGAASPQQPKSRFQAFKESPLYTIALNGAFFVAGVAFIQSPLMDMLAPQL
binding result (cryo-EM structure [2]): binds

Binder: B4
binding result (Tom40 [4]): binds

binding result (Tom40 [3]): binds
B5: Tom7 (natural protein, S. cerevisiae, UniProt P53507 1-60, looked up)
chain: MSFLPSFILSDESKERISKILTLTHNVAHYGWIPFVLYLGWAHTSNRPNFLNLLSPLPSV
